Reference: US20220193195A1, “LYMPHOTOXIN ALPHA FOR USE IN THERAPY OF MYELOID LEUKEMIA” (Klinikum Rechts der Isar der Technischen Universität München, priority 2019, published 2022)
“Also recorded” adds a separate entry of the source.

Experiments:
[1] = test system: AML primary human samples; assay: Primary AML bone marrow samples treated in vitro for 7 days (Lin- cells, LSC, CD99- HSPC); format: cell-based; details: for cell death of AML cells (blasts, LSCs), comparison between treatments: 7-day treatment of AML primary human samples
From the text: Primary and secondary AML samples were obtained from patients enrolled in the clinical trial AMLCG-2008 (http://clinicaltrial.gov identifier NCT01382147), the AML register protocol of the AML Register and Biomaterial Database of the German Leukemia Study Alliance, the AML register protocol of the German AML Cooperative Group Version 2.0 from Jan. 6, 2011, the AML register protocol of the German AML study group, or treated at the III. Medical Department at the Technical University of Munich after approval of the local ethics committee (approval no. 62/16 S from Feb. 10, 2016 to 2790/10 from Apr. 30, 2010). Informed consent was obtained from patients at study entry.
To examine how targeting TNF/ LT-α signaling can be most effectively used to treat AML, the inventors treated AML primary human samples in vitro. LT-α and a-TNF (Adalimumab) were evaluated, alone or in combination. Moreover, LT-α was tested in combination with the standard AML chemotherapeutic Cytarabine (CYT), the clinical SMAC mimetic Birinapant, and the clinical pan-caspase inhibitor Emricasan. Drug concentrations were determined after titration in healthy bone marrow samples and AML cell lines (data not shown). After 7-day-treatment, cell viability was evaluated, using CD99 to discriminate between non-leukaemogenic HSPCs (CD99^−) and LSCs (FIG. 4c).

[2] = test system: WT FLT3-ITD mice (FLT3-ITD-driven myeloproliferative disorder)
Experimental: For treatment, two- and eight-weeks post transplantation animals were randomly divided into groups of eight. Mice were i.v. injected twice per week with either isotype control (5 mg/kg; RTK2071; Biolegend), Etanercept (Enbrel®, 50 ng/ml; Pfizer), rm LT-α (250 μg/kg; Cusabio), a-TNF (5 mg/kg; MP6-XT22; Biolegend), or rm LT-α plus a-TNF.
Mice with disease were sacrificed. Peripheral blood white blood cell counts (WBC) were measured by scil Vet abc (scil animal care company). Single-cell suspensions of indicated tissue samples were prepared and red blood cells of peripheral blood were lysed before analysis. Cells were pre-incubated with Fc-block and subsequently stained with fluorescently labeled antibodies. Dead cells were excluded by PI (Sigma) or Zombie Aqua™ Fixable Viability Kit (Biolegend) staining according to the manufacturer's instructions.

[3] = test system: FLT3-ITD-transduced BM; assay: Colony forming cell assay (CFU-GEMM) of FLT3-ITD-transduced bone marrow; format: cell-based, mouse; details: WT FLT3-ITD transduced cultures; rm LT-α 100 ng/ml, rm TNF 100 ng/ml, Etanercept 50 ng/ml; counted after 10 days; vs control
Experimental: For colony forming cell assays, all duplicate cultures were performed in 35 mm petri dishes in murine methylcellulose medium (Methocult, Stem Cell Technologies). BM cells of unchallenged or 5-FUchallenged mice were plated in M3434. […] For analysis of colony forming units (CFU) cell viability, colonies were grown for 10 days in the presence of propidium iodide (PI) (0.8 μg/ml; Sigma) and representative CFU-GEMM were imaged using a Keyence BZ-9000 (Biorevo) fluorescence microscope.

[4] = test system: AML cell lines; assay: Relative number of cells in AML cell lines after treatment (flow cytometry); format: cell-based, human; details: panel of nine AML cell lines; 7 days; vs untreated cells
Experimental: All centrifugation steps were performed at 400×g.

[5] = test system: healthy BM
Experimental: (§1) Human primary samples: Bone marrow mononuclear cells (BMMC) were isolated from heparinized bone marrow samples or bone chips by centrifugation over a Ficoll-Hypaque layer (Biochrom) of 1.077 g/ml density. Cells were harvested and used directly for immunephenotyping or cultured in IMDM (Gibco) supplemented with 20% fetal calf serum (FCS; PAN-Biotech), penicillin/streptomycin 0.05 mM, L-glutamine 2 mM, and 2-mercaptoethanol 0.05 mM (Gibco) on EL08-1D2 stromal cells.
(§2) For flow cytometry analysis after treatment, BM cells or AML cell lines were cultured as described above for 7 days in the presence of the following cytokines and inhibitors if indicated and not stated otherwise: Etanercept (Enbrel®; 50 ng/ml; Pfizer), recombinant human (rh) LT-α (100 ng/ml; R&D), rh TNF (100 ng/ml; R&D), Emricasan (2.5 nM; SelleckChem), Birinapant (10 nM; SelleckChem), Cytarabine (100 nM), a-LTα-Ig (10 μg/ml; 359-238-8; Biolegend), Adalimumab (Humira®; 500 ng/ml; Abbvie), and respective isotype controls Mouse IgG1, κ (MOPC-21; Biolegend), and Ultra-LEAF™ purified Human IgG1 (QA16A12; Biolegend).
(§3) Non-leukemia control samples were collected from individuals who underwent bone marrow aspiration for diagnostic purposes and in whom subsequently a hematological disease was ruled out. Healthy controls were isolated from the femoral heads of patients who underwent surgical hip replacement.
(§4) Antibodies used to separate human hematopoietic cell subsets, for immunephenotyping and intracellular protein expression analysis: Fluorescently labelled antibodies against Lineage Cocktail (Cat #348801; 348703), CD45RA (HI100), CD34 (581), CD38 (HB-7), CD99 (3B2/TA8), CD123 (5B11) were obtained from Biolegend. Flow analysis was performed on a BD FACS Canto II (BD Biosciences) and data were analyzed using FlowJo software (Tree Star).

[6] = test system: K562; assay: Relative number of K562 CML cells after treatment; details: alone or with imatinib 1 or 10 μM; vs untreated cells
Experimental: As a model for CML, LT-α was tested for potential effects on the cell line K562, either separately against the standard therapy imatinib (in concentrations of 1 or 10 μM) alone, or in combination (FIG. 5).

[7] = test system: healthy BM; assay: Hematopoietic cell subsets in healthy bone marrow treated with LT-α; details: 100 ng/ml LT-α
Experimental: as §1, §2, §3, §4

[8] = WT FLT3-ITD mice, treated twice per week
[9] = compared to controls, data not shown

Molecule: CC[C@H](NC(=O)[C@H](C)NC)C(=O)N1C[C@@H](O)C[C@H]1Cc1c(-c2[nH]c3cc(F)ccc3c2C[C@@H]2C[C@H](O)CN2C(=O)[C@H](CC)NC(=O)[C@H](C)NC)[nH]c2cc(F)ccc12 [Birinapant, reference compound]
- cell death of AML cells (blasts, LSCs), comparison between treatments [1]: better at promoting cell death, both of blasts and LSCs, than Cytarabine

Molecule: C[C@H](NC(=O)C(=O)Nc1ccccc1C(C)(C)C)C(=O)N[C@@H](CC(=O)O)C(=O)COc1c(F)c(F)cc(F)c1F [Emricasan, reference compound]
- cell death of AML cells (blasts, LSCs), comparison between treatments [1]: resistant to LT-α- and Birinapant-induced cell death

Molecule: Etanercept
- remission / disease outcome [2, 8]: rapidly succumbed to disease
- Median survival ([2]; WT mice transplanted with FLT3-ITD-transduced WT BM, treated i.v. twice per week): 65 days
- WBC counts [2, 9]: considerably elevated
- hepato-splenomegaly [2, 9]: increased
- latency [2, 9]: reduced
- leukemic burden [2, 9]: elevated
- number of primitive leukemic cells [2, 9]: drastically increased
- number of GEMM colonies [3]: increase
- number of AML cells [4]: not observed

Molecule: adalimumab
- number of AML cells [4]: drastic reduction

B1: LT-α: Lymphotoxin alpha polypeptide (SEQ ID No. 1/2); recombinant mouse LT-α used in mouse tests, recombinant human LT-α in human cell tests (protein, UniProt P01374 35-205, looked up)
Lymphotoxin-alpha: LPGVGLTPSAAQTARQHPKMHLAHSTLKPAAHLIGDPSKQNSLLWRANTDRAFLQDGFSLSNNSLLVPTSGIYFVYSQVVFSGKAYSPKATSSPLYLAHEVQLFSSQYPFHVPLLSSQKMVYPGLQEPWLHSMYHGAAFQLTQGDQLSTHTDGIPHLVLSPSTVFFGAFAL
modifications: mouse LT-α also used
- toxicity to healthy controls / healthy cells [5]: lacks any pronounced cytotoxicity
- tolerability in vivo ([2]; WT FLT3-ITD mice, i.v. twice per week): well tolerated
- remission / disease outcome [2, 8]: induced durable remissions
- LSCs in FLT3-ITD-transplanted mice ([2]; treated twice per week): eradicates LSCs
- cell death of AML cells (blasts, LSCs), comparison between treatments [1]: more effectively than the standard AML chemotherapeutic Cytarabine; also recorded: more efficient manner than a-TNF
- non-leukaemogenic HSPCs (CD99-) ([1]; 7-day treatment, a-TNF = Adalimumab): promoted expansion
- Lin- cells (bulk of AML blasts and healthy HSPCs) ([1]; 7-day treatment, rh LT-α 100 ng/ml): killed
- LSCs in AML BM samples ([1]; 7-day treatment, rh LT-α 100 ng/ml, a-TNF = Adalimumab 500 ng/ml): killed
- number of GEMM colonies [3]: significantly reduced
- number of AML cells [4]: significantly decreased
- effect on K562 cells (relative number of cells) [6]: significant effects; also recorded: kills blast cells
- toxic effect on healthy bone marrow ([7]; bone marrow samples from healthy control patients): not elicit any detectable toxic effect
- healthy haematopoiesis (HSCs and myeloid progenitor subsets) ([7]; healthy BM): sustained
